Data from PMC3951440, “Assessing Specific Oligonucleotides and Small Molecule Antibiotics for the Ability to Inhibit the CRD-BP-CD44 RNA Interaction” (PLoS ONE, 2014).

Key:
CRD-BP (IMP1) (mouse) [1] = target: CRD-BP (IMP1) (mouse) (UniProt O88477); test: EMSA; settings: EMSA: 5 mM Tris-Cl pH 7.4, 2.5 mM EDTA, 2 mM DTT, 5% glycerol, 0.1 mg/ml BSA, 0.5 mg/ml yeast tRNA, 5 U RNasin; 30 C with ice steps; 40 nM RNA probe
CRD-BP (IMP1) (mouse) [2] = target: CRD-BP (IMP1) (mouse) (UniProt O88477); test: competition; settings: EMSA: 5 mM Tris-Cl pH 7.4, 2.5 mM EDTA, 2 mM DTT, 5% glycerol, 0.1 mg/ml BSA, 0.5 mg/ml yeast tRNA, 5 U RNasin; 30 C with ice steps; 40 nM RNA probe

Sequence of CRD-BP (IMP1) (mouse) (O88477 whole entry): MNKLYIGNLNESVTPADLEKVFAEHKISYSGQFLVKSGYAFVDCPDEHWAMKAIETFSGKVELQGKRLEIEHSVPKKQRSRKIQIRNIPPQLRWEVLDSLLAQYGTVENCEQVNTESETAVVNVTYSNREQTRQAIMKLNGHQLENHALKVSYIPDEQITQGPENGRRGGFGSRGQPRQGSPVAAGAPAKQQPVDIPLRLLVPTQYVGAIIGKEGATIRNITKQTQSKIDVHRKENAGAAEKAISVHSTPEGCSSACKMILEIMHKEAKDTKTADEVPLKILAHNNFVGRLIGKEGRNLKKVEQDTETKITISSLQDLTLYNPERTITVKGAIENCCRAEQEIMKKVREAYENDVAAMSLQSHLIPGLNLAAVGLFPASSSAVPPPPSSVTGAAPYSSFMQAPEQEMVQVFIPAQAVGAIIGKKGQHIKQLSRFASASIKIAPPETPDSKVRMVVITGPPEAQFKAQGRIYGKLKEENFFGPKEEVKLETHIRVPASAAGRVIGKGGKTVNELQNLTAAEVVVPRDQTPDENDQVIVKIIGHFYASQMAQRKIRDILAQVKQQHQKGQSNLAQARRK

Sequence	binding signal (CRD-BP (IMP1) (mouse) [1]) [% bound]	binding (CRD-BP (IMP1) (mouse) [1])	other results
GGAAAUUAGGGCCCAAUUAAUAAUCAGCAAGAAUUUGAUCGUUCCAGUUCCCACUUGGAGGC [P2 RNA]	5		
GGAAAUUAGGGCCCAAUUAAUAAUCAGCAAGAAUUUGAUCGUUCCAGUUCCCACUUGGAGGCCUUUCAUCCCUCGGGUGUGCUAUGGAUGGCUUCUAACAAAAACUACACAUAUGUAUUCCU [P4 RNA]		no binding	
GGAAAUUAGGGCCCAAUUAAUAAUCAGCAAGAAUUUGAUCGUUCCAGUUCCCACUUGGAGGCCUUUCAUCCCUCGGGUGUGCUAUGGAUGGCUUCUAACAAAAACUACACAUAUGUAUUCCUGAUCGCCAACCUUUCCCCCACCAGCUAA [P5 RNA]	15		
GGAAAUUAGGGCCCAAUUAAUAAUCAGCAAGAAUUUGAUCGUUCCAGUUCCCACUUGGAGGCCUUUCAUCCCUCGGGUGUGCUAUGGAUGGCUUCUAACAAAAACUACACAUAUGUAUUCCUGAUCGCCAACCUUUCCCCCACCAGCUAAGGACAUUUCCCAGGGUUAAUAGGGCCUGGU [P6 RNA]		binds	
GGAAAUUAGGGCCCAAUUAAUAAUCAGCAAGAAUUUGAUCGUUCCAGUUCCCACUUGGAGGCCUUUCAUCCCUCGGGUGUGCUAUGGAUGGCUUCUAACAAAAACUACACAUAUGUAUUCCUGAUCGCCAACCUUUCCCCCACCAGCUAAGGACAUUUCCCAGGGUUAAUAGGGCCUGGUCCCUGGGAGGAAAUUU [CD44 Fragment 4 RNA]			binding (CRD-BP (IMP1) (mouse) [2]): binds; Kd (CRD-BP (IMP1) (mouse) [1]): 645 nM
